We go through 1 molecule from paper PMC11197762 (Fundamental Research, 2022).

The assay deals with GST-p53, full-length, wild-type (human, UniProt P04637 1-393). Briefly: pull-down.
Sequence of GST-p53, full-length, wild-type (P04637 whole entry): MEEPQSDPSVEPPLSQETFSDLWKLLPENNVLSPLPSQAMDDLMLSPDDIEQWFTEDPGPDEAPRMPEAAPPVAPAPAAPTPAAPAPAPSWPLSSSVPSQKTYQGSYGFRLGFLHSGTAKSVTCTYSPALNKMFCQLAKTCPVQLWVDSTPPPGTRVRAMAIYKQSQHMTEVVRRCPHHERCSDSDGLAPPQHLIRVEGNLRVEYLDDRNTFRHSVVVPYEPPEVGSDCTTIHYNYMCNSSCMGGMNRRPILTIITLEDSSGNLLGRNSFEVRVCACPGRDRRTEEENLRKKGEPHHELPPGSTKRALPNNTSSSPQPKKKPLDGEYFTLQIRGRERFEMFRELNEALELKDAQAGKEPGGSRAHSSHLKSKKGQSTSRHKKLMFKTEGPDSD

B1: BRD4 basic residue-enriched interaction domain (BID, aa 524-579), purified (domain or fragment)
chain: QLAALSQPQQNKPKKKEKDKKEKKKEKHKRKEEVEENKKSKAKEPPPKKTKKNNSS
B1: the binding result is “binds”.
